In experiment [1] the target is GAL4 DNA-binding domain-fused Bombyx mori Ago3 (pDBD-Ago3) (Bombyx mori) (UniProt A9ZSZ2). Nature of the experiment: two-hybrid; insect two-hybrid (I2H) in BmN4 cells: GAL4 DBD bait, p65 AD prey, 4xUAS-TATA-Luc reporter, luciferase at 72 h post-transfection, relative to the pUC18 control prey; also in BmN4-SID1 cells 72 h after dsRNA against HP1a, HP1b, Ago3, Siwi, putative piRNA-related genes or GFP (control).

The target of experiment [2] is GAL4 DNA-binding domain-fused Bombyx mori Siwi (pDBD-Siwi) (Bombyx mori) (UniProt A8D8P8). The experiment is described as above.
Chain of UniProt A8D8P8 (A8D8P8 whole entry, the tested form may be a part): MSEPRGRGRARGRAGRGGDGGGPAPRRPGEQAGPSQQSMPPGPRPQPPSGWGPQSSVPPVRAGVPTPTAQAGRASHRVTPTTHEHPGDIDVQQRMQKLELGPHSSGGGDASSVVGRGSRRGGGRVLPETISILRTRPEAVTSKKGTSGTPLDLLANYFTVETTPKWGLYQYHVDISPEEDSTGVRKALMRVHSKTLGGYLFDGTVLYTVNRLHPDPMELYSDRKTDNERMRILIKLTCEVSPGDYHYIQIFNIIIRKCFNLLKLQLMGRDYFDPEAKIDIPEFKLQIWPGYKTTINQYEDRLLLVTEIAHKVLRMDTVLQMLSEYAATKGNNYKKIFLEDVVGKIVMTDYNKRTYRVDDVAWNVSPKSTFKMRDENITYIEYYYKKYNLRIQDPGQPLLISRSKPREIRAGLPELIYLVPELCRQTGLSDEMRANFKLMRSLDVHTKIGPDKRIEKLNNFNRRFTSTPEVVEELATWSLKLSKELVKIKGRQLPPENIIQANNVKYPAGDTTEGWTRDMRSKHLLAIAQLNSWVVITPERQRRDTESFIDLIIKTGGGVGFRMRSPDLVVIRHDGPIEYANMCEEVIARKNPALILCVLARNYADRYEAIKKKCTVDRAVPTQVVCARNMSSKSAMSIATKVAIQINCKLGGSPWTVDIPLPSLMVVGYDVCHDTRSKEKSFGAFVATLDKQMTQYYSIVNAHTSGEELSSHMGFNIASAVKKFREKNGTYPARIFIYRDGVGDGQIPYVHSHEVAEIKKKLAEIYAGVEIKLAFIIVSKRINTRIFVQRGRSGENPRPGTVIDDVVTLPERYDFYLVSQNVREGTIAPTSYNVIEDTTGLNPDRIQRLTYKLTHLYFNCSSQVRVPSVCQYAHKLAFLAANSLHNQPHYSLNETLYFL

One substance from publication PMC3956929 can be followed below.

Chain of UniProt A9ZSZ2 (A9ZSZ2 whole entry, the tested form may be a part): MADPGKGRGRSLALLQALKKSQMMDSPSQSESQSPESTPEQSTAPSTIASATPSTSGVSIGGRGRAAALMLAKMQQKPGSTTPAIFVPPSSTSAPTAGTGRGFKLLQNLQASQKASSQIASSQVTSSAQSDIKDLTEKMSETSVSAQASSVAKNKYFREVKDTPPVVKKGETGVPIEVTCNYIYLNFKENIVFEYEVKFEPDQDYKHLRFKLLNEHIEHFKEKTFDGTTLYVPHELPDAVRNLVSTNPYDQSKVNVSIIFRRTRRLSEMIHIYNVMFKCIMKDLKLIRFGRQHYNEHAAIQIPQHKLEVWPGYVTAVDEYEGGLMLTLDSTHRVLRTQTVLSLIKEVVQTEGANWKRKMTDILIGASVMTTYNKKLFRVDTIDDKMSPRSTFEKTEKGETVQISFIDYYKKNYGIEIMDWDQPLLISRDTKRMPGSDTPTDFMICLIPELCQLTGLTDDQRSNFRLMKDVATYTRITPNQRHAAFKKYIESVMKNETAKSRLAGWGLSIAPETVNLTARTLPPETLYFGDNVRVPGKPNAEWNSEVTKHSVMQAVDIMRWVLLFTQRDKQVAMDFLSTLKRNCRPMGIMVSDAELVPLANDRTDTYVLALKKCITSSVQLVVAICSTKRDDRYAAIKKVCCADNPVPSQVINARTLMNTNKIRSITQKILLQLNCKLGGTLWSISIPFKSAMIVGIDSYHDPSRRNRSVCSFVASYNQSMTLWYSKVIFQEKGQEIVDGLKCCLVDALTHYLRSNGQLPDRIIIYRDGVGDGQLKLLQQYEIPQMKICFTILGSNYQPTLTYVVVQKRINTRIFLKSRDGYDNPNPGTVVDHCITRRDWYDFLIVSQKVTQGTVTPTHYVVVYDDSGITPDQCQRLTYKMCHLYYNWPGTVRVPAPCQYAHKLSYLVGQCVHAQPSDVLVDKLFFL

Consider “p65 activation domain-fused Bombyx mori HP1a (pAD-HP1a) (natural protein)”, for which the fold increase of reporter activity over the pUC18 control in experiment [1] and in experiment [2] was above 10 fold in each case.
